Reference: patent US11746139B2, “IL-7Rαγc binding compounds” (MEDIKINE, INC., priority 2020, dated 2023)

Key:
IL-7Rα subunit [1] = biological target: T1, IL-7Rα subunit (Homo sapiens, UniProt P16871); assay: Competition of IL-7Rα ligands with IL-7 for binding to IL-7Rα
IL-7Rα subunit [2] = biological target: T1, IL-7Rα subunit; assay: Phage competitive binding assay characterizing the IL-7Rα ligand binding site; conditions: for Competition with Phage Clone SEQ ID NO: 5 (Family 1) for binding to the IL-7Rα subunit: phage clone 5, immobilized IL-7Rα ECD; for Competition with Phage Clone SEQ ID NO: 43 (Family 3A) for binding to the IL-7Rα subunit: phage clone 43, immobilized IL-7Rα ECD; for Competition with Phage Clone SEQ ID NO: 104 (Family 3B) for binding to the IL-7Rα subunit: phage clone 104, immobilized IL-7Rα ECD; for Competition with Phage Clone SEQ ID NO: 313 (Family 2) for binding to the IL-7Rα subunit: phage clone 313, immobilized IL-7Rα ECD

T1 sequence (P16871 21-236): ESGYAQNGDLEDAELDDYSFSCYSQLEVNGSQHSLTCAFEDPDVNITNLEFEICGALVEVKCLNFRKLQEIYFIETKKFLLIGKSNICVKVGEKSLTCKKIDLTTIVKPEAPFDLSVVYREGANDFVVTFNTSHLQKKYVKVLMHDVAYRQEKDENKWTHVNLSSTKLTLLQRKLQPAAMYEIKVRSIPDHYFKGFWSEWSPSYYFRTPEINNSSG

| Substance | Competitive binding with IL-7 binding to IL-7Rα (IL-7Rα subunit [1]) | Competition with Phage Clone SEQ ID NO: 965 (N/A) for binding to the IL-7Rα subunit (IL-7Rα subunit [2]; phage clone 965, immobilized IL-7Rα ECD) | Competition with Phage Clone SEQ ID NO: 5 (Family 1) for binding to the IL-7Rα subunit (IL-7Rα subunit [2]) | Competition with Phage Clone SEQ ID NO: 43 (Family 3A) for binding to the IL-7Rα subunit (IL-7Rα subunit [2]) | Competition with Phage Clone SEQ ID NO: 104 (Family 3B) for binding to the IL-7Rα subunit (IL-7Rα subunit [2]) | Competition with Phage Clone SEQ ID NO: 313 (Family 2) for binding to the IL-7Rα subunit (IL-7Rα subunit [2]) |
| --- | --- | --- | --- | --- | --- | --- |
| Y M A C S S G L S L C R L S [SEQ ID NO: 104] | do not bind competitively | – | + (IL-7Rα ligand competes with phage binding.) | + (IL-7Rα ligand competes with phage binding.) | + (IL-7Rα ligand competes with phage binding.) | + (IL-7Rα ligand competes with phage binding.) |
| Q C I H W D I E T L L S C V [SEQ ID NO: 5] | do not bind competitively | – | + (IL-7Rα ligand competes with phage binding.) | + (IL-7Rα ligand competes with phage binding.) | + (IL-7Rα ligand competes with phage binding.) | + (IL-7Rα ligand competes with phage binding.) |
| V Y C A E I G E Y R V C R Q [SEQ ID NO: 43] | do not bind competitively | – | + (IL-7Rα ligand competes with phage binding.) | + (IL-7Rα ligand competes with phage binding.) | + (IL-7Rα ligand competes with phage binding.) | + (IL-7Rα ligand competes with phage binding.) |

Now from value to substance, other results behind:

| Competitive binding with IL-7 binding to IL-7Rα (IL-7Rα subunit [1]) | Competition with Phage Clone SEQ ID NO: 965 (N/A) for binding to the IL-7Rα subunit (IL-7Rα subunit [2]; phage clone 965, immobilized IL-7Rα ECD) | Substance | Competition with Phage Clone SEQ ID NO: 5 (Family 1) for binding to the IL-7Rα subunit (IL-7Rα subunit [2]) | Competition with Phage Clone SEQ ID NO: 43 (Family 3A) for binding to the IL-7Rα subunit (IL-7Rα subunit [2]) | Competition with Phage Clone SEQ ID NO: 104 (Family 3B) for binding to the IL-7Rα subunit (IL-7Rα subunit [2]) | Competition with Phage Clone SEQ ID NO: 313 (Family 2) for binding to the IL-7Rα subunit (IL-7Rα subunit [2]) |
| --- | --- | --- | --- | --- | --- | --- |
| do not bind competitively | 0^2 | QCVHWDLDTLFGCIREQLEL [SEQ ID NO: 146] | +^1 (IL-7Rα ligand competes with phage binding.) | + (IL-7Rα ligand competes with phage binding.) | + (IL-7Rα ligand competes with phage binding.) | + (IL-7Rα ligand competes with phage binding.) |
| do not bind competitively | – | G G V P W C T L D P G S L Q C A W F [SEQ ID NO: 313] | + (IL-7Rα ligand competes with phage binding.) | + (IL-7Rα ligand competes with phage binding.) | + (IL-7Rα ligand competes with phage binding.) | + (IL-7Rα ligand competes with phage binding.) |
